This note sets out measurements from publication PMC3848071 (Acta Naturae, 2013).

One series relates to CSCC[C@H](N)C(=O)O. Briefly: purified protein.
The test system of series [1] is N[C@@H](CSCc1ccccc1)C(=O)O. Briefly: purified protein.
Another series deals with CCSC[C@H](N)C(=O)O. Description: purified protein.
The subject of series [2] is C[S+]([O-])CC[C@H](N)C(=O)O. Briefly: purified protein.
The next series concerns the target T1, MGL from C. sporogenes (Clostridium sporogenes, UniProt A0A7X5SZI3).
T1 construct: gene megL
Type of series: biochemical. Particulars: read-out: MGL from C. sporogenes / Кm.

The next series has as its target T2, MGL from C. tetani (Clostridium tetani, UniProt Q890V5).
T2 construct: gene CTC_02530
As to conditions: read-out: MGL from C. tetani / Кm.

A further series concerns the target MGL from P. gingivalis (Porphyromonas gingivalis, UniProt Q7MX71). Particulars: read-out: MGL from P. gingivalis / Кm.

As usually defined, the kcat/Km is the turnover number divided by the Michaelis constant.

As for “MGL from P. gingivalis (Porphyromonas gingivalis W83)”, the Km came out at 1770 µM with CSCC[C@H](N)C(=O)O, 1470 µM in series [1], 2170 µM in the series with CCSC[C@H](N)C(=O)O and 12220 µM in series [2]. Besides, the kcat/Km in the series on CSCC[C@H](N)C(=O)O came to 2200 M⁻¹ s⁻¹; in series [1], 3940 M⁻¹ s⁻¹; in the series with CCSC[C@H](N)C(=O)O, 3710 M⁻¹ s⁻¹; in series [2], 413 M⁻¹ s⁻¹.
With “MGL from C. tetani (Clostridium tetani E88)”, in the series on CSCC[C@H](N)C(=O)O, the Km was 947 µM and the kcat/Km stood at 12700 M⁻¹ s⁻¹.
Take `CCSCC[C@H](N)C(=O)O` [S-Et-L-Hcy]: the results for the Km at MGL from C. sporogenes, on MGL from C. tetani and on MGL from P. gingivalis were 278 µM, 545 µM and 930 µM, respectively.
